Assay results published in US20210115103A1.

Biological target: AM receptor expressed in a cultured cell line (HEK293 cell line)
Assay: cell-based or functional assay

| Relative activity (%) (vs. hAM), intracellular cAMP, compound at 10^-6 M | Substance |
| --- | --- |
| 27 | amidated compound of Example 1: (IgG1 Fc Region)+(Linker S)+(AM-Gly), amidated (Fc fusion) |
| 49 | amidated compound of Example 4: (IgG4 Fc Region)+(Linker K)+(AM-Gly), amidated (Fc fusion) |
| 27 | amidated compound of Example 3: (IgG4 Fc Region)+(Linker S)+(AM-Gly), amidated (Fc fusion) |
| 39 | amidated compound of Example 10: (IgG4 Fc Region)+(Linker K)+(AM (6-52)-Gly), amidated (Fc fusion) |
| 36 | amidated compound of Example 11: (IgG4 Fc Region)+(Linker S)+(AM (11-52)-Gly), amidated (Fc fusion) |
| 11 | amidated compound of Example 2: (IgG1 Fc Region)+(Linker K)+(AM-Gly), amidated (Fc fusion) |
| 70 | amidated compound of Example 6: (IgG1 Fc Region)+(Linker K)+(AM (6-52)-Gly), amidated (Fc fusion) |
| 48 | amidated compound of Example 12: (IgG4 Fc Region)+(Linker K)+(AM (11-52)-Gly), amidated (Fc fusion) |
| 88 | amidated compound of Example 5: (IgG1 Fc Region)+(Linker S)+(AM (6-52)-Gly), amidated (Fc fusion) |
| 54 | amidated compound of Example 9: (IgG4 Fc Region)+(Linker S)+(AM (6-52)-Gly), amidated (Fc fusion) |
| 68 | amidated compound of Example 7: (IgG1 Fc Region)+(Linker S)+(AM (11-52)-Gly), amidated (Fc fusion) |
| 48 | amidated compound of Example 8: (IgG1 Fc Region)+(Linker K)+(AM (11-52)-Gly), amidated (Fc fusion) |
